Measured values reported in patent publication US20250262274A1.

Biological target: VMRFL (VEGFR2-c-MPL chimeric receptor, D1-7 linked to the c-MPL TM) (human)
Test: cell-based or functional assay

recombinant human VEGF-A165 (from UniProt P15692 27-191) (ligand)
EC50 of % pSTAT5+ cells (VEGF dose-dependent STAT5 phosphorylation in VMRFL+ T cells): 106 pg/ml | EC50 of pSTAT5 MFI (VEGF dose-dependent STAT5 phosphorylation in VMRFL+ T cells): 144 pg/mL
